Experimental data taken from publication PMC10840515.

Target: HLA-DR1 (HLA-DRA*0101, HLA-DRB1*0101) (human)
Assay: ELISA

Substance: influenza A virus hemagglutinin (HA) peptide HA305-319
- IC50: 29 nM
